From the DeepSol protein solubility set

Assay: soluble on expression in E. coli; label from the status in PepcDB or PDB records

Row | Sequence | soluble on expression in E. coli
1 | MNGLATSLGKGQESAIGGSSAIGEYIRPLPQPGDRPEPLSAKPTFLSRSGSARCRSESDMENERNSNTSKQRYSGKVHLCVARYSYNPFDGPNENPEAELPLTAGKYLYVYGDMDEDGFYEGELLDGQRGLVPSNFVDFVQDNESRLASTLGNEQDQNFINHSGIGLEGEHILDLHSPTHIDAGITDNSAGTLDVNIDDIGEDIVPYPRKITLIKQLAKSVIVGWEPPAVPPGWGTVSSYNVLVDKETRMNLTLGSRTKALIEKLNMAACTYRISVQCVTSRGSSDELQCTLLVGKDVVVAPSHLRVDNITQISAQLSWLPTNSNYSHVIFLNEEEFDIVKAARYKYQFFNLRPNMAYKVKVLAKPHQMPWQLPLEQREKKEAFVEFSTLPAGPPAPPQDVTVQAGVTPATIRVSWRPPVLTPTGLSNGANVTGYGVYAKGQRVAEVIFPTADSTAVELVRLRSLEAKGVTVRTLSAQGESVDSAVAAVPPELLVPPTPHPRPAPQSKPLASSGVPETKDEHLGPHARMDEAWEQSRAPGPVHGHMLEPPVGPGRRSPSPSRILPQPQGTPVSTTVAKAMAREAAQRVAESSRLEKRSVFLERSSAGQYAASDEEDAYDSPDFKRRGASVDDFLKGSELGKQMVS | not soluble
2 | MNGLLKYSFPICFSLLALFACEDDGIDVDNIEVPAGFALSAGTATNFLTSSYAYDRSADWITGAYDKRFTRGDKLYDDIRTSSNGIGGGLGPVYAGYSCGSCHRNAGRTQPTLWSEGGSGSSGFSSMLVYISRKNGAFFQDYGRVLHDQAIYGVKPEGKLKVEYTYETFQFPDGETYELCKPNYSIYEWYADSIKPEDLFCTVRIPLRHVGMGQMMALDPTEIEALAAKSNYPEYGISGRCNYISERGMRSLGLSGNKAQHADLTVELGFSSDMGVTNSRYPEEICEGQAQVNQGSMMGLSYAQLDVSTEEMENVDLYMQSLSVPARRNVNNEQVIKGEQNFYKAKCHLCHVTTLHTKPRGSILLNGTRLPWLGSQTIHPYSDFLLHDMGSEIMGVGLNDNYVSGLARGNEWRTTPLWGIGLQETVNGHTYFLHDGRARNYIEAIMWHGGEGEASKNLFKKMSKEDRNALVAFLKSL | not soluble
3 | MNGQNFNEMLHDEQVFAEFMVPNAHTTPNLWRIQQQNQENQIPQNFQHLDFQYFQYQNQKQEVVHGAHCMGTVGSSWNEQVAVKKPSSSQSRKGGKNKEEAREKNHQKNKALLEMLNQVDPAVIDAEIEEQKEKQRLRKNRGRYDPIGAHGAQQGTRGVQNEVQYHRNFQNNNNNNS | not soluble
4 | MNGRVDYLVTEEEINLTRGPSGLGFNIVGGTDQQYVSNDSGIYVSRIKENGAAALDGRLQEGDKILSVNGQDLKNLLHQDAVDLFRNAGYAVSLRVQHRLQVQNGPI | soluble
5 | MNGYQITFFTQQDRHHAGKPLADWLMHLAAEMGLRGATLIPGSEGMGHDKRFHSVHFFELSDQLLEVVMVVSEEEADQLFARLRAEGVRLFYVKVAAEFGIMD | not soluble
6 | MNIDLTPYYAEPGEQPFSARRMAMPWRNHVPLSPEQIPAGWQTLKQQSVPARKRLLYLHIPFCATHCTFCGFYQNKLRDDSTATYTRYLLQELAMEADSPLHQSAPIHAVYFGGGTPTALAADELSQIIRAIRTSLPLAPDCEITVEGRAMDFDDERIDACLDAGANRFSIGIQTFDTRIRQRMARTSDKQQSIRFLERLCGRDRAAVVCDLMFGLPGQTPEIWREDLAIVSDLPLDGVDLYALNLLPTTPLAKAAENQRVALPDVVARRDFYRTGAAFLADSGWHQLSNSHWARTTRERNLYNLLIKQGADCLAMGSGAGGNINGQAYMMERSLERYYQQIDQGQKPIMMMTPASSTGPWQHQLQAGIEVGRIKLPQLTQHARELQPLLSQWHQAGLTCDDSTCLRLTNDGRFWANNLMQALQQIIPQLNAEEHAHLEHHHHHH | soluble
7 | MNIELRHLRYFVAVAEELHFGRAAARLNISQPPLSQQIQALEQQIGARLLARTNRSVLLTAAGKQFLADSRQILSMVDDAAARAERLHQGEAGELRIGFTSSAPFIRAVSDTLSLFRRDYPDVHLQTREMNTREQIAPLIEGTLDMGLLRNTALPESLEHAVIVHEPLMAMIPHDHPLANNPNVTLAELAKEPFVFFDPHVGTGLYDDILGLMRRYHLTPVITQEVGEAMTIIGLVSAGLGVSILPASFKRVQLNEMRWVPIAEEDAVSEMWLVWPKHHEQSPAARNFRIHLLNALR | not soluble
8 | MNIERKQAKQKEISSGHSFLEWGMTILKMPPAKRIKMVRDGVKVTHLVGAGRYYGISQAKLSKLLGISDATITRKIRSSGKLGPLESERLARIALIEAEAEKVFDSSDLAKRWMLESNLALGESPLSLLDTDMGADEVRKVLASIAYGGIA | not soluble
9 | MNIGVIILAAGEGKRFGGDKLLAKIDNTPIIMRTIRIYGDLEKIIIVGKYVNEMLPLLMDQIVIYNPFWNEGISTSLKLGLRFFKDYDAVLVALGDMPFVTKEDVNKIINTFKPNCKAVIPTHKGERGNPVLISKSLFNEIEKLRGDVGARVILNKIKIEELCFIECSEGVLIDIDKKEDLMRLRDFHPLEHHHHHH | soluble
10 | MNIKFKPVEPADRSAITTITFSSVARICDLAFSNLYCWSFVYGTSWAIVEGCLIIRFKPKSRSHPVYLFPVGADPEQVVAAAHRLKAEVVHEDYPLIFMGVTPDIHRCIEEHCSAEYYFIEDEAYCDYIYERESLATLSGKKLQAKRNHINKFVSLYPDYTYDPVKDSDAEECLMLAHLWLDSRGDQDGRELEVEMVERAFRHRQELGLSGGVLRVGGRVVAFCLGSPINTDTFGVHIEKADAMVEGAFAMINREFARSIPDTFRYINREEDLGLPGLRQAKLSYRPAILLPKQTAILRRDHDRIQA | not soluble
11 | MNISIRAETPGDIDAIAHLTEAAFRNETHSSHTEQYIVDALRRAGALTLSLVAEANGQVIGHIAASPVTIDGEAGDWYGLAPLSVAPGRQRQGLGSQLVRRLLTELRLLPAGGCVVLGEPTYYSRFGFRVESGLALPGVPAEYFQAQSFSGRMAQGIVAFHAAFDASG | not soluble
12 | MNIVEPLRDKDDIQAMKDYLSSWNEKYYMLFLLGINTGFRVGDILKLKVKDVQGWHIKVREQKTGKYKSIKMTRPLKNELREFVKDKELHEYLFQSRVGKNKALSYKTVYWFLKRAAEDLGIDNVGTHTMRKTFGYHYYKKYKNVADLMSLFNHSSPAVTLIYICVRQDELDTKMSNFSL | not soluble
13 | MNIVLMGLPGAGKGTQAEQIIEKYEIPHISTGDMFRAAIKNGTELGLKAKSFMDQGNLVPDEVTIGIVHERLSKDDCQKGFLLDGFPRTVAQADALDSLLTDLGKKLDYVLNIKVEQEELMKRLTGRWICKTCGATYHTIFNPPAVEGICDKDGGELYQRIDDKPETVKNRLDVNMKQTQPLLDFYSQKGVLKDIDGQQDIKKVFVDINDLLGGLR | soluble
14 | MNIYVLMKRTFDTEEKIVIKNGAIYDGEAEFIINPYDEYAIEEAIQVRDAQGGEVTVVTVGGEDSEKELRTALAMGCDKAVLINIEDDVENGDQFTTAKVLAEYLKDKDADLILGGNVAIDGASGQVGPRVAEALNIPYVTTITKLEIDGTNVKIERDVEGDTEVVETSLPVLVTAQQGLNEPRYPSLPGIMKAKKKPLEELELDDLDLEEDDVEAKTKTIEIYLPPKKDAGKVLQGELQDQVKELVSLLHTEAKVI | not soluble
15 | MNKIAIQKPNIPENLQTADFHDAVTQDDVISMHLFEDCTICGEDIERLCVEKTVFRNVVFIDVSFRHIELTDVIFEKCDLSNADFSGAVIHRTSVKQSKMVGMNVAEATLRNVSFEECHGHFSSFSYSNMKQVRFDHCALMQSECSDTVLQQTHFDGCELEGASFTGTSLQNMDISTCRFEQLHVSLDKLKGCKIAPEHAIAFARALGAVIVLEHHHHHH | soluble
16 | MNKILIAAASSGAGKTTVTLGIMQALKKRGFAVQPFKVGPDYIDTNYHQAITGVASINLDSFLIDDDEMLASLFQKHGESADISVIEGVMGLFDGLGTDRDNASTSFIAKCTKTPVILVVDGKAISTSAAAIVDGFNRFDPELKIAGVIINRVASENHFSLIKGAIERYTDVPVLGYLPKNAAVALPERHLGLVPQEEMTELEAKWELLSDLITTHVDLDKLLEISKSSENLSTSKAQMKVADFSGLRVAYALDAAFHFYYQDNLDLIRLTGAELIPFSPLEDNEVPEADFIYIGGGFPEIFAKQLNDNRSMRKSILAAHEKGIPIYAECGGLMYLGSSLEMEGKQYEMVGVFNGISKMTTRLRKFGYCIAEPLEETLIGKKGMSIRGHEFHHSVFETTETACMKLSKKRDGEIVKEWRGGYQKGNTFASYLHIHFYQNPAILMQMFGAGKRLEHHHHHH | soluble
17 | MNKISPLGSNWNEFEQQIFNEEEIRESNLRVALIKELITSRQQLGISQKQLETLSGVKQPMIARIEKGQTNPQLETLLKLLAPLGKTLSIVPLRVKNA | not soluble
18 | MNKKIFVIGSGLSGLVASTELLKKGYHVTMLDQEPRQAIGGQAYWSFGGLFLVNSKIQQRLGVKDSYELALNDWLGSAQFDRPDDEDYWAKQWAEAYVRFATFEKENYLKEMGVRLTPILGWAERGGASASGHGNSVPRFHITWGTGPGLVEPFSRFVLEKEQEGQFKFLPRHQVTDIGIEHNQVTHISGIILEPSDVERGEKSSRTVIDTFHYEVDELLITSGGIGANMPLIRKYWPKRLGNPPKTMIQGVPDSTDGHLIQVTEDAGANIVNKDRMWHYTEGIQNHSPIWSNHGIRIIPGPSSMWFDATGKRMAAPDYPGFDTLHTLETIMKTGYDYSWFILTEDIIKKEFVLSGSEQNPDLTDKDIKLLLQERLGSKATSPVEAFMDKGPDFILADDLGMLVRKMNDLAGNDLLNYETIKHEIKARDLQIDNPFTKDPQVAFINNARQFLGNKLVRTAKPHKILSGRNGRLIAVKLNIISRKTLGGIQTNLDGQALNPSMQPIQGLYAAGEASGFGGGGVHGYRALEGTFLGGCIFSGIRAAEGIHHHIQLEHHHHHH | soluble
19 | MNKNLHPIFAKRIQQVLDENGWSMADLSRRVMLSHTSVRKWASGTSVASGERLKRLSAVTGRPEYWFFMEPGDESEGERAEPKPRVLDEKEETLLSLFNQLPEAEKLRVILHTKAVLQEMDLLKNNVFDLINDLKK | not soluble
20 | MNKYEEVLQELIKASGIEGAAIVSLDGLPIASVLPANAEEDKVAAMSAAILSLGERVVEELGKGTMEQITIKGDKGYVVITEIGQDAVLTTLAGQDSKLGLIYMEIKKAQQKLKELI | not soluble
21 | MNLFYNKEAVGDVAFLQINPTEGEYNYVTQGDVVEIQNDGEVVGYNIFNASNKATLTGNGHIKLTETLVQAFQKAIEAAGFTYKLDADFTPKFVVGYVETKDKHPDADKLSVLSVDVATEKLQIVCGAPNVEAGQKVVVAKVGAVMPSGMVIKDAELRGVASSGMICSMKELGLPNAPQEKGIMVLSDDYTVGQSFFEVLEHHHHHH | soluble
22 | MNLKEFIIPAIDLMEGKAVRLYKGDFNKVKVYSERPWELAKNFSDLGFKRLHVVDLEGAEGGKPKNLEVIRKIRENFEGEVEVGGGIRSYEVAKALFDEGIDFVVIGTLAYKNKEEFLKILENFPNRVILAIDSKQGKVAIGGWKEETAVSPEEFAKEYENYPIWGYLYTVIERDGSLEGVDVEPYKEIKKHVKKPVIASGGVSSLEDIKKLYGIVEGVVVGKAIYEGRITLEDLQNF | soluble
23 | MNLLETVEQDTMPTHYKQMTQVEMIARVTEIKAQLGENLFIPCHHYQKDEVVPFADAIGDSLQLAQIAAQNKKAKHIVFCGVHFMAETADMLTTSEQIVTLPDMRAGCSMADMADIHQLTNAWPKLQTLFGDTILPVTYINSTAAIKSFVGEHGGTTVTSSNATKIVSWALEQKERIFFLPDQHLGRNTAFELGIPLEHMAIWNPIKNELEYEGNLDDCKVILWKGYCSVHQHFTVKNIENIRKNHPNMRIIVHPECTHEVVSLADDSGSTKKIVTEINNAAPGTEWAVGTEANLVGRIIQENPDKKIVSLNPFMCPCMTMNRIDLPHLLWTLEAIQNGEKRNQIKVDEQTTKFALKALERMLQLS | not soluble
